Assay results published in patent publication US20160108091A1 (Novartis, published 2016).
Bridges are numbered along the chain shown (N, C = ends). [ ]: non-standard residue; d: D form. The star is where a group is joined. pGlu = O=C1CC[C@@H](C(=O)O)N1; NHPhenethyl = c1ccc(CCN*)cc1; d(hCys) = N[C@H](CCS)C(=O)O; dNle = CCCC[C@@H](N)C(=O)O; hCys = N[C@@H](CCS)C(=O)O; Nle = CCCC[C@H](N)C(=O)O

T1: human APJ receptor (hAPJ) (human, UniProt P35414 1-380)
T1 sequence (looked up): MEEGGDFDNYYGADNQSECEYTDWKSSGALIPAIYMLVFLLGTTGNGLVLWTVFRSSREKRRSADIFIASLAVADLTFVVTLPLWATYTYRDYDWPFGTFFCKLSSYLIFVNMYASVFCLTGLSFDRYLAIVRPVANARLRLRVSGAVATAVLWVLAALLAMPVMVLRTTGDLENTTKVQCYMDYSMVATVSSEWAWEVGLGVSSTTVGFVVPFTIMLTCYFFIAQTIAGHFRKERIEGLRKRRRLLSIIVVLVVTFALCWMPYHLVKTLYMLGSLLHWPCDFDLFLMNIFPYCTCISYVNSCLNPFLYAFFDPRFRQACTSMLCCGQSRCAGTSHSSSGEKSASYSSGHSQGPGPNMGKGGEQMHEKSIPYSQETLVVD

B1: Ac-c-R-P-R-L-S-(hC)-K-G-P-(D-Nle)-a-f-OH (peptide)
peptide: Ac-[dC]RPRLS[hCys]KGP[dNle][dA][dF]-OH
modifications: not fully specified; printed as Ac-c-R-P-R-L-S-(hC)-K-G-P-(D-Nle)-a-f-OH; cysteine pairing not given here
B2: Ac-C*-R-P-R-L-S-C*-K-G-P-Nle-NH(Phenethyl) (peptide)
peptide: Ac-CRPRLSCKGP[Nle]-NHPhenethyl
modifications: disulfide 1-7
SMILES: CCCC[C@H](NC(=O)[C@@H]1CCCN1C(=O)CNC(=O)[C@H](CCCCN)NC(=O)[C@@H]1CSSC[C@H](NC(C)=O)C(=O)N[C@@H](CCCNC(=N)N)C(=O)N2CCC[C@H]2C(=O)N[C@@H](CCCNC(=N)N)C(=O)N[C@@H](CC(C)C)C(=O)N[C@@H](CO)C(=O)N1)C(=O)NCCc1ccccc1
B3: Ac-(D-hC)*-R-P-R-L-S-(hC)*-K-G-P-f-a-f-OH (peptide)
peptide: Ac-[d(hCys)]RPRLS[hCys]KGP[dF][dA][dF]-OH
modifications: disulfide 1-7
SMILES: CC(=O)N[C@@H]1CCSSCC[C@@H](C(=O)N[C@@H](CCCCN)C(=O)NCC(=O)N2CCC[C@H]2C(=O)N[C@H](Cc2ccccc2)C(=O)N[C@H](C)C(=O)N[C@H](Cc2ccccc2)C(=O)O)NC(=O)[C@H](CO)NC(=O)[C@H](CC(C)C)NC(=O)[C@H](CCCNC(=N)N)NC(=O)[C@@H]2CCCN2C(=O)[C@H](CCCNC(=N)N)NC1=O
B4: Ac-(D-hC)*-R-P-R-L-S-(D-hC)*-K-G-P-Nle-P-F-OH (peptide)
peptide: Ac-[d(hCys)]RPRLS[d(hCys)]KGP[Nle]PF-OH
modifications: disulfide 1-7
SMILES: CCCC[C@H](NC(=O)[C@@H]1CCCN1C(=O)CNC(=O)[C@H](CCCCN)NC(=O)[C@H]1CCSSCC[C@@H](NC(C)=O)C(=O)N[C@@H](CCCNC(=N)N)C(=O)N2CCC[C@H]2C(=O)N[C@@H](CCCNC(=N)N)C(=O)N[C@@H](CC(C)C)C(=O)N[C@@H](CO)C(=O)N1)C(=O)N1CCC[C@H]1C(=O)N[C@@H](Cc1ccccc1)C(=O)O
B5: Ac-C*-R-P-R-L-S-C*-K-G-P-Nle-P-F-OH (peptide)
peptide: Ac-CRPRLSCKGP[Nle]PF-OH
modifications: disulfide 1-7
SMILES: CCCC[C@H](NC(=O)[C@@H]1CCCN1C(=O)CNC(=O)[C@H](CCCCN)NC(=O)[C@@H]1CSSC[C@H](NC(C)=O)C(=O)N[C@@H](CCCNC(=N)N)C(=O)N2CCC[C@H]2C(=O)N[C@@H](CCCNC(=N)N)C(=O)N[C@@H](CC(C)C)C(=O)N[C@@H](CO)C(=O)N1)C(=O)N1CCC[C@H]1C(=O)N[C@@H](Cc1ccccc1)C(=O)O
B6: Ac-c*-R-P-R-L-S-hC*-K-G-P-Nle-P-F-OH (peptide)
peptide: Ac-[dC]RPRLS[hCys]KGP[Nle]PF-OH
modifications: disulfide 1-7
SMILES: CCCC[C@H](NC(=O)[C@@H]1CCCN1C(=O)CNC(=O)[C@H](CCCCN)NC(=O)[C@@H]1CCSSC[C@@H](NC(C)=O)C(=O)N[C@@H](CCCNC(=N)N)C(=O)N2CCC[C@H]2C(=O)N[C@@H](CCCNC(=N)N)C(=O)N[C@@H](CC(C)C)C(=O)N[C@@H](CO)C(=O)N1)C(=O)N1CCC[C@H]1C(=O)N[C@@H](Cc1ccccc1)C(=O)O
B7: Ac-C*-R-P-R-L-S-C*-K-G-P-Nle-P-f-OH (peptide)
peptide: Ac-CRPRLSCKGP[Nle]P[dF]-OH
modifications: disulfide 1-7
SMILES: CCCC[C@H](NC(=O)[C@@H]1CCCN1C(=O)CNC(=O)[C@H](CCCCN)NC(=O)[C@@H]1CSSC[C@H](NC(C)=O)C(=O)N[C@@H](CCCNC(=N)N)C(=O)N2CCC[C@H]2C(=O)N[C@@H](CCCNC(=N)N)C(=O)N[C@@H](CC(C)C)C(=O)N[C@@H](CO)C(=O)N1)C(=O)N1CCC[C@H]1C(=O)N[C@H](Cc1ccccc1)C(=O)O
B8: pE-R-C*-R-L-S-C*-F-G-P-(D-Nle)-a-f-OH (peptide)
peptide: [pGlu]RCRLSCFGP[dNle][dA][dF]-OH
modifications: disulfide 3-7
SMILES: CCCC[C@@H](NC(=O)[C@@H]1CCCN1C(=O)CNC(=O)[C@H](Cc1ccccc1)NC(=O)[C@@H]1CSSC[C@H](NC(=O)[C@H](CCCNC(=N)N)NC(=O)[C@@H]2CCC(=O)N2)C(=O)N[C@@H](CCCNC(=N)N)C(=O)N[C@@H](CC(C)C)C(=O)N[C@@H](CO)C(=O)N1)C(=O)N[C@H](C)C(=O)N[C@H](Cc1ccccc1)C(=O)O
B9: Ac-c*-R-P-R-L-S-C*-K-G-P-Nle-P-F-OH (peptide)
peptide: Ac-[dC]RPRLSCKGP[Nle]PF-OH
modifications: disulfide 1-7
SMILES: CCCC[C@H](NC(=O)[C@@H]1CCCN1C(=O)CNC(=O)[C@H](CCCCN)NC(=O)[C@@H]1CSSC[C@@H](NC(C)=O)C(=O)N[C@@H](CCCNC(=N)N)C(=O)N2CCC[C@H]2C(=O)N[C@@H](CCCNC(=N)N)C(=O)N[C@@H](CC(C)C)C(=O)N[C@@H](CO)C(=O)N1)C(=O)N1CCC[C@H]1C(=O)N[C@@H](Cc1ccccc1)C(=O)O
B10: pE-R-C*-R-L-S-C*-K-G-P-Nle-P-F-OH (peptide)
peptide: [pGlu]RCRLSCKGP[Nle]PF-OH
modifications: disulfide 3-7
SMILES: CCCC[C@H](NC(=O)[C@@H]1CCCN1C(=O)CNC(=O)[C@H](CCCCN)NC(=O)[C@@H]1CSSC[C@H](NC(=O)[C@H](CCCNC(=N)N)NC(=O)[C@@H]2CCC(=O)N2)C(=O)N[C@@H](CCCNC(=N)N)C(=O)N[C@@H](CC(C)C)C(=O)N[C@@H](CO)C(=O)N1)C(=O)N1CCC[C@H]1C(=O)N[C@@H](Cc1ccccc1)C(=O)O
B11: pE-R-C*-R-L-S-C*-K-A-P-(D-Nle)-a-f-OH (peptide)
peptide: [pGlu]RCRLSCKAP[dNle][dA][dF]-OH
modifications: disulfide 3-7
SMILES: CCCC[C@@H](NC(=O)[C@@H]1CCCN1C(=O)[C@H](C)NC(=O)[C@H](CCCCN)NC(=O)[C@@H]1CSSC[C@H](NC(=O)[C@H](CCCNC(=N)N)NC(=O)[C@@H]2CCC(=O)N2)C(=O)N[C@@H](CCCNC(=N)N)C(=O)N[C@@H](CC(C)C)C(=O)N[C@@H](CO)C(=O)N1)C(=O)N[C@H](C)C(=O)N[C@H](Cc1ccccc1)C(=O)O
B12: pE-R-C*-R-L-S-C*-K-a-P-(D-Nle)-a-f-OH (peptide)
peptide: [pGlu]RCRLSCK[dA]P[dNle][dA][dF]-OH
modifications: disulfide 3-7
SMILES: CCCC[C@@H](NC(=O)[C@@H]1CCCN1C(=O)[C@@H](C)NC(=O)[C@H](CCCCN)NC(=O)[C@@H]1CSSC[C@H](NC(=O)[C@H](CCCNC(=N)N)NC(=O)[C@@H]2CCC(=O)N2)C(=O)N[C@@H](CCCNC(=N)N)C(=O)N[C@@H](CC(C)C)C(=O)N[C@@H](CO)C(=O)N1)C(=O)N[C@H](C)C(=O)N[C@H](Cc1ccccc1)C(=O)O
B13: Ac-c*-R-P-R-L-S-c*-K-G-P-Nle-P-F-OH (peptide)
peptide: Ac-[dC]RPRLS[dC]KGP[Nle]PF-OH
modifications: disulfide 1-7
SMILES: CCCC[C@H](NC(=O)[C@@H]1CCCN1C(=O)CNC(=O)[C@H](CCCCN)NC(=O)[C@H]1CSSC[C@@H](NC(C)=O)C(=O)N[C@@H](CCCNC(=N)N)C(=O)N2CCC[C@H]2C(=O)N[C@@H](CCCNC(=N)N)C(=O)N[C@@H](CC(C)C)C(=O)N[C@@H](CO)C(=O)N1)C(=O)N1CCC[C@H]1C(=O)N[C@@H](Cc1ccccc1)C(=O)O
B14: pE-R-C*-R-L-S-C*-K-G-P-(D-Nle)-a-f-OH (peptide)
peptide: [pGlu]RCRLSCKGP[dNle][dA][dF]-OH
modifications: disulfide 3-7
SMILES: CCCC[C@@H](NC(=O)[C@@H]1CCCN1C(=O)CNC(=O)[C@H](CCCCN)NC(=O)[C@@H]1CSSC[C@H](NC(=O)[C@H](CCCNC(=N)N)NC(=O)[C@@H]2CCC(=O)N2)C(=O)N[C@@H](CCCNC(=N)N)C(=O)N[C@@H](CC(C)C)C(=O)N[C@@H](CO)C(=O)N1)C(=O)N[C@H](C)C(=O)N[C@H](Cc1ccccc1)C(=O)O
B15: Ac-C*-R-P-R-L-S-c*-K-G-P-Nle-P-F-OH (peptide)
peptide: Ac-CRPRLS[dC]KGP[Nle]PF-OH
modifications: disulfide 1-7
SMILES: CCCC[C@H](NC(=O)[C@@H]1CCCN1C(=O)CNC(=O)[C@H](CCCCN)NC(=O)[C@H]1CSSC[C@H](NC(C)=O)C(=O)N[C@@H](CCCNC(=N)N)C(=O)N2CCC[C@H]2C(=O)N[C@@H](CCCNC(=N)N)C(=O)N[C@@H](CC(C)C)C(=O)N[C@@H](CO)C(=O)N1)C(=O)N1CCC[C@H]1C(=O)N[C@@H](Cc1ccccc1)C(=O)O
B16: pE-R-C*-R-L-S-C*-K-G-P-(D-Nle)-NH2 (peptide)
peptide: [pGlu]RCRLSCKGP[dNle]-NH2
modifications: disulfide 3-7
SMILES: CCCC[C@@H](NC(=O)[C@@H]1CCCN1C(=O)CNC(=O)[C@H](CCCCN)NC(=O)[C@@H]1CSSC[C@H](NC(=O)[C@H](CCCNC(=N)N)NC(=O)[C@@H]2CCC(=O)N2)C(=O)N[C@@H](CCCNC(=N)N)C(=O)N[C@@H](CC(C)C)C(=O)N[C@@H](CO)C(=O)N1)C(N)=O
B17: Ac-(D-hC)*-R-P-R-L-S-hC*-K-G-P-Nle-P-F-OH (peptide)
peptide: Ac-[d(hCys)]RPRLS[hCys]KGP[Nle]PF-OH
modifications: disulfide 1-7
SMILES: CCCC[C@H](NC(=O)[C@@H]1CCCN1C(=O)CNC(=O)[C@H](CCCCN)NC(=O)[C@@H]1CCSSCC[C@@H](NC(C)=O)C(=O)N[C@@H](CCCNC(=N)N)C(=O)N2CCC[C@H]2C(=O)N[C@@H](CCCNC(=N)N)C(=O)N[C@@H](CC(C)C)C(=O)N[C@@H](CO)C(=O)N1)C(=O)N1CCC[C@H]1C(=O)N[C@@H](Cc1ccccc1)C(=O)O

molecular target: T1, human APJ receptor (hAPJ); assay: cell-based or functional assay

Point of comparison: B12, “hAPJ Ca^2+ Flux EC50” value 72.2 nM. Against it:
- B1 — within 1.5-fold, 79.3 nM
- B2 — 2.2-fold lower, 32.2 nM
- B3 — 2.4-fold higher, 174 nM
- B4 — 5.7-fold higher, 410 nM
- B5 — 7.7-fold lower, 9.4 nM
- B6 — 5.9-fold lower, 12.2 nM
- B7 — 1.5-fold lower, 46.9 nM
- B8 — 22-fold lower, 3.3 nM
- B9 — 3.4-fold lower, 21.4 nM
- B10 — 72-fold lower, 1 nM
- B11 — within 1.5-fold, 85.8 nM
- B13 — within 1.5-fold, 48.7 nM
- B14 — 25-fold lower, 2.9 nM
- Ac-CRPRLSCKGP[Nle]P-NHPhenethyl (disulfide 1-7) [Ac-C*-R-P-R-L-S-C*-K-G-P-Nle-P-NH(Phenethyl)] — 23-fold lower, 3.2 nM
- B15 — 2.7-fold higher, 194 nM
- B16 — 3.1-fold higher, 227 nM
- B17 — 5.1-fold lower, 14.1 nM
